These results are taken from patent publication US20050113284A1, “Drug for regenerating tissue and vessel and method therefor” (priority 2001, published 2005).

The target in assay [1] is T1, HGF receptor c-Met β chain (Homo sapiens, UniProt P08581).
T1 construct: expressed in transfected cells; host or cells: yeast AH109 strain (library prey plasmid, human kidney cDNA library, CLONTECH)
Nature of the assay: Yeast two-hybrid binding of MERMUC bait proteins to c-Met prey (C-terminal 91 amino acids). The conditions noted are these: prey clone No. 3-309 (C-terminal 91 amino acids of human c-Met). As to the method:
The present examination was performed using the previously reported yeast two-hybrid system (references are described above) according to conventional method and the experimental protocols provided with the reagents. […]
The binding ability of MERMUC bait protein derived from each of the bait vectors to the HGF receptor c-Met β chain was analyzed by the yeast two-hybrid system described above. […]
Each of the bait vectors was cointroduced into yeast AH109 strain with human HGF receptor c-Met prey vector (comprising DNA encoding the C-terminal 91 amino acids of the c-Met; Example 1). The binding ability of each of the bait proteins (randomly selected 10 amino acids of the human MERMUC C-terminal region) to the C-terminal region of human c-Met β chain was analyzed by the yeast two-hybrid system similar to the aforementioned Example.

Assay [2] concerns MAP kinase (Erk). Nature of the assay: Recovery of HGF-induced MAP kinase activation in MERMUC/293 cells (Western blotting). Format: cell-based, human. The conditions noted are these: MERMUC expressing MERMUC/293 cells transfected with del-4 expression vector vs mock. The method, then: The del-4 protein expression vector produced above was added to Tet-Off/MERMUC expressing recombinant cells (MERMUC/293 cells) (produced in Example 2) and cultured at 37° C. for 48 hr for transfection using GeneJammer Transfection Reagent (STRATAGENE) according to the accompanying protocol.
Cells were similarly transfected with pcDNA3 vector [mock] that lack the cDNA encoding del-4 instead of the del-4 expression vector as a control.
The cells were stimulated with human recombinant HGF (CALBIOCHEM), and cell lysate was prepared according to conventional method immediately after the stimulation to evaluate the activation level of MAP kinase (also referred to as Erk).
The cell lysate was separated by SDS-PAGE, and then subjected to Western blotting according to conventional method using anti-phosphorylated MAP kinase polyclonal antibody (Phospho-p44/42 MAP kinase (Thr202/Thr204) antibody; Cell Signaling Technology) to determine the MAP kinase activation level based on the obtained signal intensity.
On the technique in general: Immunoblotting shows a protein as a band on a membrane.

Assay [3] deals with T2, MERMUC self-association (Homo sapiens, UniProt Q8N307, D493H/DEL182-352/L354P/R136E/T442I).
T2 construct: human MERMUC (full-length; full)/β-galΔα; β-galΔω (E. coli β-galactosidase residues 1-789); β-galΔα (E. coli β-galactosidase lacking residues 12-42); expressed in transfected cells; host or cells: CHO cells (A5); CHO-K1 cells (A6); pcDNA3 vectors
T2 sequence (Q8N307 with tags, fused parts or gaps R136E/DEL182-352/L354P/T442I/D493H limits assumed): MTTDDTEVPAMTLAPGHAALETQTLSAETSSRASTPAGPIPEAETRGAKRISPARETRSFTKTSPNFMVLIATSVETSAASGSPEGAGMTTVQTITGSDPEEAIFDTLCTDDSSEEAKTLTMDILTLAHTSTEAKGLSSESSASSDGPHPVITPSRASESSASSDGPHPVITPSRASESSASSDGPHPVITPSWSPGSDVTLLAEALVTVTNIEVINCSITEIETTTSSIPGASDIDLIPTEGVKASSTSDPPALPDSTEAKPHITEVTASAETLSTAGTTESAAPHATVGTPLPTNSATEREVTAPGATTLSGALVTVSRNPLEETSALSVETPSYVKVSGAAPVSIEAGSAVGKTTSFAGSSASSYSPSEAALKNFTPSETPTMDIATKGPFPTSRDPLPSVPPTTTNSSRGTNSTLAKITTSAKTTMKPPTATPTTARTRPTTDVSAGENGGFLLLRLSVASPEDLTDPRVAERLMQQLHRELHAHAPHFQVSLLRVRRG
Briefly: Suppression of MERMUC self-association by MERMUC cytoplasmic region peptides (β-gal activity, CHO-K1 cells). The conditions noted are these: various concentrations of del-4; FIG. 18. Format: cell-based. The text has this: (§1) To validate this prediction and at the same time synthesize a MERMUCMERMUC peptide that is able to suppress MERMUC self-association through the binding to the MERMUC self-association region, the following 4 types of peptides each corresponding to a part of MERMUC cytoplasmic region were synthesized by the method described later: • del-1: amino acid sequence from amino acids 244 to 345 of SEQ ID NO: 10; • del-2: amino acid sequence from amino acids 244 to 380 of SEQ ID NO: 10; • del-3: amino acid sequence from amino acids 244 to 415 of SEQ ID NO: 10; and • del-4: amino acid sequence from amino acids 244 to 450 of SEQ ID NO: 10.
(§2) Each of the cDNA obtained by PCR was digested with HindIII and XhoI and inserted into the HindIII/XhoI site of pcDNA3 vector to obtain an expression vector expressing each of the human MERMUC cytoplasmic region fragments (del-1 to del-4). […]
(§3) Intracellular β-Galactosidase activity of the recombinant cells was measured using Gal-Screen System (Applied Biosystems) according to the accompanying protocol 48 hr after plasmid transfection. […]

The target of assay [4] is T3, MERMUC self-association (Homo sapiens, UniProt Q8N307).
T3 construct: human MERMUC (full-length; full)/β-galΔα; β-galΔω (E. coli β-galactosidase residues 1-789); β-galΔα (E. coli β-galactosidase lacking residues 12-42); expressed in transfected cells; host or cells: CHO cells (A5); CHO-K1 cells (A6); pcDNA3 vectors
T3 sequence (Q8N307 with tags, fused parts or gaps R136E/DEL182-352/L354P/T442I/D493H limits assumed): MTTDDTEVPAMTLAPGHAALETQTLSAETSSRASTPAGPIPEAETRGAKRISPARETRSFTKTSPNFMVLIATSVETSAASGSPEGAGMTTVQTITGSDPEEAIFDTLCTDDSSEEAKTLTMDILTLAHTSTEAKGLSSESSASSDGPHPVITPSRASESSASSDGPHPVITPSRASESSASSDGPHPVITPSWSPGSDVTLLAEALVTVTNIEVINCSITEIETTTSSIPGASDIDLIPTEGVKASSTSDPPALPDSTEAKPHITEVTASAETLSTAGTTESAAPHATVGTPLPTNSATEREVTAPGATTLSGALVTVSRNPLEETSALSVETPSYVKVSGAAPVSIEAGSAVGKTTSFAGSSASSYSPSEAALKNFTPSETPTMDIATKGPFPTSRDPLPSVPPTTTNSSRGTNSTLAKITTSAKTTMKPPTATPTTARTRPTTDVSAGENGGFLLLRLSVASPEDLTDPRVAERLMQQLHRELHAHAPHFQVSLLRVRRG
The assay is described as above. Format: cell-based. The conditions noted are these: compared among del-1 to del-4; FIG. 16.
Description: as §1, §2, §3

In assay [5] the test system is binding of MERMUC and HGF receptor c-Met. Nature of the assay: Suppression of MERMUC binding to HGF receptor c-Met by MERMUC cytoplasmic region peptides (β-gal activity, CHO-K1 cells). Format: cell-based, human.

T1 sequence (P08581 1300-1390): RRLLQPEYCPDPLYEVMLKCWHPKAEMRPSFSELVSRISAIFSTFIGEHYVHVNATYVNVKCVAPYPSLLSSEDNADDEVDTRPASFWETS

B1: C260AC53: MERMUC bait protein, 53 amino acids deleted from the C-terminus of C260; amino acids 244-450 of SEQ ID NO: 10 (protein, listed as Homo sapiens)
chain: VKASSTSDPPALPDSTEAKPHITEVTASAETLSTAGTTESAAPHATVGTPLPTNSATEREVTAPGATTLSGALVTVSRNPLEETSALSVETPSYVKVSGAAPVSIEAGSAVGKTTSFAGSSASSYSPSEAALKNFTPSETPTMDIATKGPFPTSRDPLPSVPPTTTNSSRGTNSTLAKITTSAKTTMKPPTATPTTARTRPTTDVSA
In the case of B1, the “binding activity to the HGF receptor c-Met β chain” value in assay [1] is listed as “completely lost the binding activity”.

B2: del-4: MERMUC cytoplasmic region peptide, amino acids 244 to 450 of SEQ ID NO: 10 (protein, listed as Homo sapiens)
chain: VKASSTSDPPALPDSTEAKPHITEVTASAETLSTAGTTESAAPHATVGTPLPTNSATEREVTAPGATTLSGALVTVSRNPLEETSALSVETPSYVKVSGAAPVSIEAGSAVGKTTSFAGSSASSYSPSEAALKNFTPSETPTMDIATKGPFPTSRDPLPSVPPTTTNSSRGTNSTLAKITTSAKTTMKPPTATPTTARTRPTTDVSA
B2: the “phosphorylated MAP kinase level after HGF stimulation” value in assay [2] was “a significant level of phosphorylated MAP kinase was observed”. The “suppression of MERMUC self-association, dose dependence” value in assay [3] is “increased in del-4 dosage-dependent manner”. Besides, the “suppression of MERMUC self-association” value in assay [4] is given as “strongest suppression”. Besides, the “decrease in the binding of MERMUC and HGF receptor c-Met” value in assay [5] (compared among del-1 to del-4, FIG. 17) is on record as “greatest decrease”. In addition, the “suppression of the binding of MERMUC and HGF receptor c-Met, dose dependence” value in assay [5] (various concentrations of del-4, FIG. 18) is given as “increased in del-4 dosage-dependent manner”.

B3: C260: MERMUC bait protein, C-terminal 260 amino acids of cytoplasmic region; amino acids 244-503 of SEQ ID NO: 10 (protein, listed as Homo sapiens)
chain: VKASSTSDPPALPDSTEAKPHITEVTASAETLSTAGTTESAAPHATVGTPLPTNSATEREVTAPGATTLSGALVTVSRNPLEETSALSVETPSYVKVSGAAPVSIEAGSAVGKTTSFAGSSASSYSPSEAALKNFTPSETPTMDIATKGPFPTSRDPLPSVPPTTTNSSRGTNSTLAKITTSAKTTMKPPTATPTTARTRPTTDVSAGENGGFLLLRLSVASPEDLTDPRVAERLMQQLHRELHAHAPHFQVSLLRVRRG
For B3, in assay [1], the “binding activity to the HGF receptor c-Met β chain” value is “possessed the binding activity”.
